Like-named read-outs stand apart in the source and are kept apart here.

Common to all, as to assay: PIE-FCCS
In experiment [1] the target is β2AR-AcGFP1 / β2AR-mCherry (β2-adrenergic receptor with a C-terminal fluorescent protein) (human) (UniProt P07550).
For experiment [2] the target is unchanged. This is another data set of the same source.
Experiment [3] deals with T1, CXCR4-AcGFP1 / CXCR4-mCherry (C-X-C motif chemokine receptor 4 with a C-terminal fluorescent protein) (human), P61073.
T1 chain: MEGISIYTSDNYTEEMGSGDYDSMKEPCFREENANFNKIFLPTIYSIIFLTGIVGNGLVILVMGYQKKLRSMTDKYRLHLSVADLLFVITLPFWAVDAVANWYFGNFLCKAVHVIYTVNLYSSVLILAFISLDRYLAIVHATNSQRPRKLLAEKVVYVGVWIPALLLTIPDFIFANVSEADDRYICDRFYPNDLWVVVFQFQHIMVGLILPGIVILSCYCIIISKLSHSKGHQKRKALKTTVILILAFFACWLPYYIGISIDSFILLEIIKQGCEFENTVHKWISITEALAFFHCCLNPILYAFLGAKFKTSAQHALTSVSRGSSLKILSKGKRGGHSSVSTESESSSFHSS
The settings on record: remark: other sources report otherwise.

The target of experiment [4] is T1, CXCR4-AcGFP1 / CXCR4-mCherry (C-X-C …). The settings on record: remark: other sources report otherwise.

For “β2AR-AcGFP1 / β2AR-mCherry (β2-adrenergic receptor with a C-terminal fluorescent protein) (from UniProt P07550 1-413)”, the fc in experiment [1] was 0.13; in experiment [2], 0.11.

B1: CXCR4-AcGFP1 / CXCR4-mCherry (C-X-C motif chemokine receptor 4 with a C-terminal fluorescent protein), P61073 1-352 (receptor)
chain: T1 chain
For B1, in experiment [3], the mean fc came out at 0.39 and the median fc amounted to 0.31. In addition, the median fc in experiment [4] was determined as 0.18.
